Source: PMC5751283, “A Split-Luciferase Reporter Recognizing GFP and mCherry Tags to Facilitate Studies of Protein–Protein Interactions” (International Journal of Molecular Sciences, 2017)

Target: the molecule itself
Test: split reporter (BiFC, NanoBiT); GFP- and/or mCherry-tagged targets expressed in Leishmania tarentolae extract (pairs co-expressed, self-associating proteins alone), serially diluted three-fold, mixed 1:1:1 with two split-nanoLuc fusions of anti-GFP or anti-mCherry nanobodies (SLN pairs GL/GS, LC/GS, CL/CS or LC/CFRS, also made in LTE); 10 min at 23 °C; buffer A (25 mM HEPES pH 7.4, 50 mM NaCl); background: …

B1: mCherry–SOX9 (natural protein, UniProt P48436 1-509, looked up)
chain: MNLLDPFMKMTDEQEKGLSGAPSPTMSEDSAGSPCPSGSGSDTENTRPQENTFPKGEPDLKKESEEDKFPVCIREAVSQVLKGYDWTLVPMPVRVNGSSKNKPHVKRPMNAFMVWAQAARRKLADQYPHLHNAELSKTLGKLWRLLNESEKRPFVEEAERLRVQHKKDHPDYKYQPRRRKSVKNGQAEAEEATEQTHISPNAIFKALQADSPHSSSGMSEVHSPGEHSGQSQGPPTPPTTPKTDVQPGKADLKREGRPLPEGGRQPPIDFRDVDIGELSSDVISNIETFDVNEFDQYLPPNGHPGVPATHGQVTYTGSYGISSTAATPASAGHVWMSKQQAPPPPPQQPPQAPPAPQAPPQPQAAPPQQPAAPPQQPQAHTLTTLSSEPGQSQRTHIKTEQLSPSHYSEQQQHSPQQIAYSPFNLPHYSPSYPPITRSQYDYTDHQNSSSYYSHAAGQGTGLYSTFTYMNPAQRPMYTPIADTSGVPSIPQTHSPQHWEQPVYTQLTRP
notes: SOX9; also called SOX9–mCherry; mCherry homodimer; source: Leishmania tarentolae cell-free extract (LTE), not purified
signal-to-background ratio: 5
